# Reference: the Human Domainome abundance scans (Beltran et al. 2025)
# ± gives the uncertainty stated by the source.
# B1: Peripheral plasma membrane protein CASK, residues 488 to 569; numbered along this chain, O14936 (parent)
# chain: VRLVQFQKNTDEPMGITLKMNELNHCIVARIMHGGMIHRQGTLHVGDEIREINGISVANQTVEQLQKMLREMRGSITFKIVP
# Variants of: B1
# Assay: abundance fitness (aPCA) (normalised: wild type 0, dead -1); higher = more abundant; growth selection in yeast, the domain comes from the species named
# Settings: Homo sapiens
row,Variant,abundance fitness
1,VRLVQFQKNTDEPMGIQLKMNELNHCIVARIMHGGMIHRQGTLHVGDEIREINGISVANQTVEQLQKMLREMRGSITFKIVP,-0.001 ± 0.029
2,VRLVQFQKNTDEPMGIPLKMNELNHCIVARIMHGGMIHRQGTLHVGDEIREINGISVANQTVEQLQKMLREMRGSITFKIVP,-1.07 ± 0.075
3,VRLVQFQKNTDEPMGIRLKMNELNHCIVARIMHGGMIHRQGTLHVGDEIREINGISVANQTVEQLQKMLREMRGSITFKIVP,-0.031 ± 0.021
4,VRLVQFQKNTDEPMGIALKMNELNHCIVARIMHGGMIHRQGTLHVGDEIREINGISVANQTVEQLQKMLREMRGSITFKIVP,-0.079 ± 0.024
5,VRLVQFQKNTDEPMGIGLKMNELNHCIVARIMHGGMIHRQGTLHVGDEIREINGISVANQTVEQLQKMLREMRGSITFKIVP,-0.023 ± 0.021
6,VRLVQFQKNTDEPMGIFLKMNELNHCIVARIMHGGMIHRQGTLHVGDEIREINGISVANQTVEQLQKMLREMRGSITFKIVP,-0.071 ± 0.045
7,VRLVQFQKNTDEPMGIKLKMNELNHCIVARIMHGGMIHRQGTLHVGDEIREINGISVANQTVEQLQKMLREMRGSITFKIVP,0.015 ± 0.03
8,VRLVQFQKNTDEPMGINLKMNELNHCIVARIMHGGMIHRQGTLHVGDEIREINGISVANQTVEQLQKMLREMRGSITFKIVP,-0.09 ± 0.032
9,VRLVQFQKNTDEPMGIHLKMNELNHCIVARIMHGGMIHRQGTLHVGDEIREINGISVANQTVEQLQKMLREMRGSITFKIVP,0.031 ± 0.029
10,VRLVQFQKNTDEPMGIMLKMNELNHCIVARIMHGGMIHRQGTLHVGDEIREINGISVANQTVEQLQKMLREMRGSITFKIVP,-0.046 ± 0.029
11,VRLVQFQKNTDEPMGIILKMNELNHCIVARIMHGGMIHRQGTLHVGDEIREINGISVANQTVEQLQKMLREMRGSITFKIVP,0.092 ± 0.03
12,VRLVQFQKNTDEPMGILLKMNELNHCIVARIMHGGMIHRQGTLHVGDEIREINGISVANQTVEQLQKMLREMRGSITFKIVP,0.019 ± 0.023
13,VRLVQFQKNTDEPMGIVLKMNELNHCIVARIMHGGMIHRQGTLHVGDEIREINGISVANQTVEQLQKMLREMRGSITFKIVP,0.003 ± 0.023
14,VRLVQFQKNTDEPMGICLKMNELNHCIVARIMHGGMIHRQGTLHVGDEIREINGISVANQTVEQLQKMLREMRGSITFKIVP,-0.045 ± 0.034
15,VRLVQFQKNTDEPMGISLKMNELNHCIVARIMHGGMIHRQGTLHVGDEIREINGISVANQTVEQLQKMLREMRGSITFKIVP,-0.051 ± 0.023
16,VRLVQFQKNTDEPMGIELKMNELNHCIVARIMHGGMIHRQGTLHVGDEIREINGISVANQTVEQLQKMLREMRGSITFKIVP,-0.019 ± 0.028
17,VRLVQFQKNTDEPMGITMKMNELNHCIVARIMHGGMIHRQGTLHVGDEIREINGISVANQTVEQLQKMLREMRGSITFKIVP,-0.128 ± 0.05
18,VRLVQFQKNTDEPMGITAKMNELNHCIVARIMHGGMIHRQGTLHVGDEIREINGISVANQTVEQLQKMLREMRGSITFKIVP,-0.761 ± 0.065
19,VRLVQFQKNTDEPMGITKKMNELNHCIVARIMHGGMIHRQGTLHVGDEIREINGISVANQTVEQLQKMLREMRGSITFKIVP,-0.796 ± 0.14
20,VRLVQFQKNTDEPMGITRKMNELNHCIVARIMHGGMIHRQGTLHVGDEIREINGISVANQTVEQLQKMLREMRGSITFKIVP,-0.986 ± 0.07
21,VRLVQFQKNTDEPMGITEKMNELNHCIVARIMHGGMIHRQGTLHVGDEIREINGISVANQTVEQLQKMLREMRGSITFKIVP,-0.909 ± 0.096
22,VRLVQFQKNTDEPMGITCKMNELNHCIVARIMHGGMIHRQGTLHVGDEIREINGISVANQTVEQLQKMLREMRGSITFKIVP,-0.262 ± 0.045
23,VRLVQFQKNTDEPMGITSKMNELNHCIVARIMHGGMIHRQGTLHVGDEIREINGISVANQTVEQLQKMLREMRGSITFKIVP,-0.699 ± 0.063

row,Variant,abundance fitness
1,VRLVQFQKNTDEPMGITDKMNELNHCIVARIMHGGMIHRQGTLHVGDEIREINGISVANQTVEQLQKMLREMRGSITFKIVP,-1.13 ± 0.23
2,VRLVQFQKNTDEPMGITTKMNELNHCIVARIMHGGMIHRQGTLHVGDEIREINGISVANQTVEQLQKMLREMRGSITFKIVP,-0.646 ± 0.086
3,VRLVQFQKNTDEPMGITPKMNELNHCIVARIMHGGMIHRQGTLHVGDEIREINGISVANQTVEQLQKMLREMRGSITFKIVP,-1.2 ± 0.22
4,VRLVQFQKNTDEPMGITIKMNELNHCIVARIMHGGMIHRQGTLHVGDEIREINGISVANQTVEQLQKMLREMRGSITFKIVP,-0.055 ± 0.098
5,VRLVQFQKNTDEPMGITNKMNELNHCIVARIMHGGMIHRQGTLHVGDEIREINGISVANQTVEQLQKMLREMRGSITFKIVP,-0.918 ± 0.35
6,VRLVQFQKNTDEPMGITQKMNELNHCIVARIMHGGMIHRQGTLHVGDEIREINGISVANQTVEQLQKMLREMRGSITFKIVP,-0.797 ± 0.13
7,VRLVQFQKNTDEPMGITHKMNELNHCIVARIMHGGMIHRQGTLHVGDEIREINGISVANQTVEQLQKMLREMRGSITFKIVP,-0.877 ± 0.28
8,VRLVQFQKNTDEPMGITVKMNELNHCIVARIMHGGMIHRQGTLHVGDEIREINGISVANQTVEQLQKMLREMRGSITFKIVP,-0.088 ± 0.029
9,VRLVQFQKNTDEPMGITFKMNELNHCIVARIMHGGMIHRQGTLHVGDEIREINGISVANQTVEQLQKMLREMRGSITFKIVP,0.04 ± 0.061
10,VRLVQFQKNTDEPMHITLKMNELNHCIVARIMHGGMIHRQGTLHVGDEIREINGISVANQTVEQLQKMLREMRGSITFKIVP,-0.549 ± 0.057
11,VRLVQFQKNTDEPMVITLKMNELNHCIVARIMHGGMIHRQGTLHVGDEIREINGISVANQTVEQLQKMLREMRGSITFKIVP,-0.682 ± 0.048
12,VRLVQFQKNTDEPMLITLKMNELNHCIVARIMHGGMIHRQGTLHVGDEIREINGISVANQTVEQLQKMLREMRGSITFKIVP,-0.62 ± 0.044
13,VRLVQFQKNTDEPMFITLKMNELNHCIVARIMHGGMIHRQGTLHVGDEIREINGISVANQTVEQLQKMLREMRGSITFKIVP,-0.427 ± 0.041
14,VRLVQFQKNTDEPMSITLKMNELNHCIVARIMHGGMIHRQGTLHVGDEIREINGISVANQTVEQLQKMLREMRGSITFKIVP,-0.493 ± 0.035
15,VRLVQFQKNTDEPMCITLKMNELNHCIVARIMHGGMIHRQGTLHVGDEIREINGISVANQTVEQLQKMLREMRGSITFKIVP,-0.556 ± 0.045
16,VRLVQFQKNTDEPMAITLKMNELNHCIVARIMHGGMIHRQGTLHVGDEIREINGISVANQTVEQLQKMLREMRGSITFKIVP,-0.395 ± 0.04
17,VRLVQFQKNTDEPMEITLKMNELNHCIVARIMHGGMIHRQGTLHVGDEIREINGISVANQTVEQLQKMLREMRGSITFKIVP,-0.201 ± 0.051
18,VRLVQFQKNTDEPMYITLKMNELNHCIVARIMHGGMIHRQGTLHVGDEIREINGISVANQTVEQLQKMLREMRGSITFKIVP,-0.776 ± 0.073
19,VRLVQFQKNTDEPMNITLKMNELNHCIVARIMHGGMIHRQGTLHVGDEIREINGISVANQTVEQLQKMLREMRGSITFKIVP,-0.398 ± 0.048
20,VRLVQFQKNTDEPMKITLKMNELNHCIVARIMHGGMIHRQGTLHVGDEIREINGISVANQTVEQLQKMLREMRGSITFKIVP,-0.538 ± 0.063
21,VRLVQFQKNTDEPMWITLKMNELNHCIVARIMHGGMIHRQGTLHVGDEIREINGISVANQTVEQLQKMLREMRGSITFKIVP,-0.374 ± 0.048
22,VRLVQFQKNTDEPMRITLKMNELNHCIVARIMHGGMIHRQGTLHVGDEIREINGISVANQTVEQLQKMLREMRGSITFKIVP,-0.467 ± 0.037
23,VRLVQFQKNTDEPMQITLKMNELNHCIVARIMHGGMIHRQGTLHVGDEIREINGISVANQTVEQLQKMLREMRGSITFKIVP,-0.362 ± 0.06

row,Variant,abundance fitness
1,VRLVQFQKNTDEPMPITLKMNELNHCIVARIMHGGMIHRQGTLHVGDEIREINGISVANQTVEQLQKMLREMRGSITFKIVP,-0.266 ± 0.037
2,VRLVQFQKNTDEPMDITLKMNELNHCIVARIMHGGMIHRQGTLHVGDEIREINGISVANQTVEQLQKMLREMRGSITFKIVP,-0.276 ± 0.037
3,VRLVQFQKNTDEPMGLTLKMNELNHCIVARIMHGGMIHRQGTLHVGDEIREINGISVANQTVEQLQKMLREMRGSITFKIVP,0.088 ± 0.036
4,VRLVQFQKNTDEPMGWTLKMNELNHCIVARIMHGGMIHRQGTLHVGDEIREINGISVANQTVEQLQKMLREMRGSITFKIVP,-0.044 ± 0.033
5,VRLVQFQKNTDEPMGETLKMNELNHCIVARIMHGGMIHRQGTLHVGDEIREINGISVANQTVEQLQKMLREMRGSITFKIVP,-0.932 ± 0.13
6,VRLVQFQKNTDEPMGVTLKMNELNHCIVARIMHGGMIHRQGTLHVGDEIREINGISVANQTVEQLQKMLREMRGSITFKIVP,-0.081 ± 0.034
7,VRLVQFQKNTDEPMGGTLKMNELNHCIVARIMHGGMIHRQGTLHVGDEIREINGISVANQTVEQLQKMLREMRGSITFKIVP,-0.98 ± 0.075
8,VRLVQFQKNTDEPMGPTLKMNELNHCIVARIMHGGMIHRQGTLHVGDEIREINGISVANQTVEQLQKMLREMRGSITFKIVP,-0.765 ± 0.13
9,VRLVQFQKNTDEPMGYTLKMNELNHCIVARIMHGGMIHRQGTLHVGDEIREINGISVANQTVEQLQKMLREMRGSITFKIVP,-0.593 ± 0.11
10,VRLVQFQKNTDEPMGCTLKMNELNHCIVARIMHGGMIHRQGTLHVGDEIREINGISVANQTVEQLQKMLREMRGSITFKIVP,-0.143 ± 0.058
11,VRLVQFQKNTDEPMGATLKMNELNHCIVARIMHGGMIHRQGTLHVGDEIREINGISVANQTVEQLQKMLREMRGSITFKIVP,-0.115 ± 0.035
12,VRLVQFQKNTDEPMGKTLKMNELNHCIVARIMHGGMIHRQGTLHVGDEIREINGISVANQTVEQLQKMLREMRGSITFKIVP,-1.14 ± 0.24
13,VRLVQFQKNTDEPMGFTLKMNELNHCIVARIMHGGMIHRQGTLHVGDEIREINGISVANQTVEQLQKMLREMRGSITFKIVP,0.109 ± 0.064
14,VRLVQFQKNTDEPMGSTLKMNELNHCIVARIMHGGMIHRQGTLHVGDEIREINGISVANQTVEQLQKMLREMRGSITFKIVP,-1.08 ± 0.15
15,VRLVQFQKNTDEPMGQTLKMNELNHCIVARIMHGGMIHRQGTLHVGDEIREINGISVANQTVEQLQKMLREMRGSITFKIVP,-0.849 ± 0.12
16,VRLVQFQKNTDEPMGTTLKMNELNHCIVARIMHGGMIHRQGTLHVGDEIREINGISVANQTVEQLQKMLREMRGSITFKIVP,-0.659 ± 0.073
17,VRLVQFQKNTDEPMGNTLKMNELNHCIVARIMHGGMIHRQGTLHVGDEIREINGISVANQTVEQLQKMLREMRGSITFKIVP,-0.654 ± 0.18
18,VRLVQFQKNTDEPMGDTLKMNELNHCIVARIMHGGMIHRQGTLHVGDEIREINGISVANQTVEQLQKMLREMRGSITFKIVP,-0.933 ± 0.21
19,VRLVQFQKNTDEPVGITLKMNELNHCIVARIMHGGMIHRQGTLHVGDEIREINGISVANQTVEQLQKMLREMRGSITFKIVP,-0.017 ± 0.032
20,VRLVQFQKNTDEPYGITLKMNELNHCIVARIMHGGMIHRQGTLHVGDEIREINGISVANQTVEQLQKMLREMRGSITFKIVP,-0.206 ± 0.049
21,VRLVQFQKNTDEPWGITLKMNELNHCIVARIMHGGMIHRQGTLHVGDEIREINGISVANQTVEQLQKMLREMRGSITFKIVP,-0.042 ± 0.05
